T1: neutrophil elastase (Homo sapiens, UniProt P08246)
T1 construct: purchased Enzo Life Sciences
T1 sequence (P08246 30-267): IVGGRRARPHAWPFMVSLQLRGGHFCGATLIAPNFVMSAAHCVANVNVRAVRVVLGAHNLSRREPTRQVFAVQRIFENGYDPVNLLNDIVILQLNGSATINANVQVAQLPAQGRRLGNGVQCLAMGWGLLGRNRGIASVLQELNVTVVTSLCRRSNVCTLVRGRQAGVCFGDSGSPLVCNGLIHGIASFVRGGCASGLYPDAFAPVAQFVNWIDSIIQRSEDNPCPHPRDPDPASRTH


How the values were obtained:
Neutrophil elastase (NE) = Neutrophil elastase (NE) (UniProt P08246); assay: cell-based or functional assay
neutrophil elastase = target: T1, neutrophil elastase; assay: Neutrophil Elastase Colorimetric Drug Discovery Assay (Enzo Life Sciences), in vitro inhibition of neutrophil elastase; assay type: biochemical
Protocol: In vitro studies were performed to test the ability of ulinastatin to inhibit neutrophil elastase (NE). The recombinant ulinastatin polypeptide (DM300) in this experiment is the UTIΔCS variant (SEQ ID NO: 2), which has an N-linked glycan at residue N45 and a non-natural O-linked glycan at residue T17 after recombinant preparation according to methods described in U.S. Provisional Application Nos. 63/108,733 and 63/021,938 (herein incorporated by reference).
Recombinant ulinastatin (DM300) was tested for inhibition of neutrophil elastase at 8 concentrations of DM300, with triplicate measurements per compound concentration. Neutrophil elastase activity was measured using the Neutrophil Elastase Colorimetric Drug Discovery Assay (Enzo Life Sciences) as per the manufacturer's protocol. 65 μl of assay buffer was placed into the required number of wells of a 96 well, clear, half area plate and equilibrated to 37° C. Inhibitor was added to a final reaction concentration at 100, 31.6, 10, 3.16, 1, 0.316, 0.1, 0.0316, or 0 μg/mL DM300 by addition of 20 μl of 5× concentration of DM300 diluted in assay buffer, followed by 10 μl of diluted neutrophil elastase. 100 μM elastatinal was also included as a control. After 15 minutes at 37° C., 5 μl of diluted substrate was added and the plate was read in SpectraMax m5 Microplate Reader equilibrated to 37° C. Linear portions of the data were selected, and the resulting data was analyzed using GraphPad Prism V.8.2.1.

| IC50 (inhibition of neutrophil elastase activity, colorimetric substrate assay) (Neutrophil elastase (NE)) [µg/mL] | IC50 (inhibition of neutrophil elastase activity, colorimetric substrate assay), molar conversion (Neutrophil elastase (NE)) [nM] | LogIC50 (best-fit value) (Neutrophil elastase (NE)) | inhibitory activity in an in vitro assay of neutrophil elastase activity (neutrophil elastase; FIG. 1) | HillSlope (neutrophil elastase; best-fit value, log(inhibitor) vs. response, variable slope (four parameters)) | LogIC50 (neutrophil elastase; best-fit value, log(inhibitor) vs. response, variable slope (four parameters), concentration in μg/mL) | IC50 (neutrophil elastase; converted from 3.153 μg/ml, assuming 1 Da=1 g/mol) [nM] | Molecule |
| --- | --- | --- | --- | --- | --- | --- | --- |
| 3.15 | 43.8 | 0.499 log10(µg/ml) | – | – | – | – | Recombinant ulinastatin polypeptide (DM300), UTIΔCS variant (from UniProt P02760 206-352) |
| – | – | – | significant inhibitory activity | −1.004 | 0.4987 | ~43.8 | DM300: recombinant ulinastatin polypeptide, UTIΔCS variant (SEQ ID NO: 2, S10A), N-linked glycan at N45 and non-natural O-linked glycan at T17 (protein, listed as Homo sapiens, N-glycan N45, O-glycan T17) AVLPQEEEGAGGGQLVTEVTKKEDSCQLGYSAGPCMGMTSRYFYNGTSMACETFQYGGCMGNGNNFVTEKECLQTCRTVAACNLPIVRGPCRAFIQLWAFDAVKGKCVLFPYGGCQGNGNKFYSEKECREYCGVPGDGDEELLRFSN |

— patent publication US20220242932A1, “ULINASTATIN POLYPEPTIDES FOR TREATING DISEASES” (DiaMedica USA Inc., priority 2021, published 2022)
